Where a SMILES comes first, the peptide text is derived from it.
Experiments:
physchem [1] = format: physicochemical; conditions: buffer or solvent, pH 7.4
Protocol: (§1) In vitro radiochemical stability of ^99mTc-BN1/^99mTc-BN2/^99mTc-BN3 and ^99mTc-BN4, ^99mTc-BNS were assessed by incubating HPLC purified radiopeptides in phosphate buffer saline (PBS at pH 7.4) and freshly collected rat serum for 1–24 h at […]. Then, 90 μL of radiolabeled peptide ^99mTc-BN1/^99mTc-BN2/^99mTc-BN3/^99mTc-BN4/^99mTc-BNS solution were incubated under agitation at 37 °C with either 1.0 mL saline or fresh rat serum, and the mixtures were incubated at 37 °C for 24 h. Samples were periodically withdrawn from the mixture at 0, 2, 4, 6, 8, 12, and 24 h incubation period and analyzed by ITLC. In the case of rat serum, the aliquot was added to 100 μL 50% trifluoroacetic acid (TFA). After centrifugation (3000 rpm), the supernatant was analyzed by ITLC using acetone as the developing solvent; 10 μL of this mixture was taken at each time point, added to a strip ITLC whereby the percentage of ^99mTc-BN1/^99mTc-BN2/^99mTc-BN3/^99mTc-BN4/^99mTc-BNS was determined using gamma counter.
(§2) In vitro stability of ^99mTc-labeled bombesin analogs incubated at 37 °C with either freshly collected rat serum or normal saline were monitored up to 24 h. […] The new radiolabeled peptide conjugates were stable up to 24 h post labeling period at room temperature, with no observable degradation or transchelation to serum proteins.

in vitro [2] = format: in vitro ADME; conditions: rat, serum
Protocol: An aliquot (100 μL) of ^99mTc-BN1/^99mTc-BN2/^99mTc-BN3/^99mTc-BN4/^99mTc-BNS was added to 1 mL of freshly collected rat serum in centrifuge tube. The mixture was then incubated at 37 °C for 1 h; the serum protein was precipitated by adding 1 mL trichloroacetic acid (10%, V/V). The supernatant and precipitate were separated by centrifugation at 3000 rpm for 5 min. Radioactivities of both the phases were measured separately. The above experimental procedure was repeated three times. The percentage of protein binding was determined as: Plasma protein binding % = (precipitate counts (CPM) / [precipitate counts (CPM) + plasma counts (CPM)]) × 100%.

in vitro [3] = format: in vitro ADME; conditions: rat, serum; remark: listed apart in the source
Protocol: as §1, §2

Blood clearance studies = format: in vivo; conditions: mouse, i.v. tail vein
Protocol: ^99mTc-labeled HYNIC/DOMA conjugated peptide analogs (1 mCi, 0.2 mL) were administered to well-hydrated mouse (n = 3) through tail vein and blood samples (20 μL each) were collected at preset time intervals (2, 5, 15, 30, 60, 90, and 120 min) in the tube. Each sample was weighed accurately, and associated radioactivity was counted in a gamma counter. The percentage injected activities per gram (%IA/g) in each blood sample at each time were determined, and the data were plotted as a function of the time interval to obtain the blood clearance curve of the radiopharmaceuticals.

physchem [4] = format: physicochemical; conditions: pH 7.4
Protocol: Lipophilicity of the HPLC-purified radiopeptide analogs was determined through octanol/water partition coefficients, determined at pH 7.4 by measuring the distribution of the HPLC purified radiolabeled peptides in 1-octanol and PBS. Then, 50 μL HPLC purified ^99mTc-BN1/^99mTc-BN2/^99mTc-BN3/^99mTc-BN4/^99mTc-BNS with 100 μCi of radiolabeled compound in PBS was added to a to a centrifuge tube containing 1 mL n-octanol and 1 mL PBS (0.025 M, pH 7.4). The tube was vortexed at room temperature for 2 min and they are centrifuged at 5000 rpm for 5 min to ensure complete separation of layers. Further, 100 μL of each phase was transferred into a separate pre-weighed vial and measured in the well γ-counter. The ratio of octanol layer counts to aqueous layer counts was expressed as the distribution coefficient (D, the appropriate descriptor for ionizable compounds) and logD was used for determination of lipophilicity. Counts per unit weight of the sample were calculated, and logD value as calculated as follows:
log10D = log10 [(cpm in octanol – cpm in background) / (cpm in buffer – cpm in background)]

CCCC[C@H](NC(=O)[C@@H](Cc1ccc(O)cc1)NC(=O)[C@H](Cc1c[nH]cn1)NC(=O)[C@H]1CCCN1C(=O)[C@@H](NC(=O)[C@H](C)NC(=O)[C@H](Cc1c[nH]c2ccccc12)NC(=O)[C@H](CCC(N)=O)NC(=O)CCCNC(=O)CN1CCNCCNCCNCC1)C(C)C)C(N)=O [99mTc-BN4, ^99mTc-DOMA-GABA-[Pro^11Tyr^13Nle^14]-BN(7-14)NH2, metal not drawn] (HELM PEPTIDE1{[O=C(CN1CCNCCNCCNCC1)[*:2]].[O=C(CCCN[*:1])[*:2]].Q.W.A.V.[dP].H.[dY].[Nle].[am]}$$$$V2.0)
remaining at 2 h (physchem [1]): 95.5 ± 0.03% | remaining at 4 h (physchem [1]): 95 ± 0.07% | remaining at 6 h (physchem [1]): 93.5 ± 0.12% | remaining at 8 h (physchem [1]): 92.5 ± 0.2% | remaining at 12 h (physchem [1]): 90 ± 0.11% | remaining at 24 h (physchem [1]): 88 ± 0.14% | fraction unbound at 1 h (in vitro [2]): 0.809 | remaining at 4 h (in vitro [3]): 97.6 ± 0.05% | remaining at 6 h (in vitro [3]): 97 ± 0.18% | remaining at 8 h (in vitro [3]): 96.4 ± 0.2% | remaining at 12 h (in vitro [3]): 95.2 ± 0.05% | remaining at 24 h (in vitro [3]): 93.3 ± 0.02% | t1/2 in blood (Blood clearance studies): 30 min | logD (physchem [4]): -2.7

From paper PMC6423188, “HYNIC and DOMA conjugated radiolabeled bombesin analogs as receptor-targeted probes for scintigraphic detection of breast tumor” (EJNMMI Research, 2019)
